What was measured:
[1] = system: directly coated FAP peptides mixture (cFAP); assay: direct ELISA on coated mixture of FAP peptides; assay type: binding, human; settings: peptides 378-392, 622-636, 721-736
Experimental: (§1) ELISA assays were performed with varying antibody concentrations to validate the binding of the exemplary antibodies of the present invention to FAP and to be able to determine their half maximal effective concentration (EC50). For the exemplary recombinant human NI-206-18H2, NI-206-20A8, NI-206-6D3, ‘NI-206-14C5, NI-206-34C11, NI-206.82C2, NI-206.59B4, NI-206.22F7, NI-206.27E8, NI-206.12G4 and NI-206.17A6 antibodies, 96-well microplates (Costar, Corning, USA) were coated with FAP, with a mixture of the 3 peptides or with BSA (Sigma-Aldrich, Buchs, Switzerland) diluted to a concentration of 5 μg/ml in carbonate ELISA coating buffer (15 mM Na2CO3, 35 mM NaHCO3, pH 9.4) for the direct ELISA. For the capture ELISA, the microplates were coated with mouse anti-His monoclonal antibody (Clontech) diluted to a concentration of 3 μg/ml in PBS, the plates were then blocked, FAP or BSA were diluted to a concentration of 2 μg/ml in PBS and added to the plates to be captured. The binding efficiency of the antibodies was then tested.
(§2) The EC50 values were estimated by a non-linear regression using GraphPad Prism (San Diego, USA) software. […] The binding of NI-206.12G4 towards sFAP was not tested.

[2] = target: T1, BSA (Bos taurus, UniProt P02769); assay: ELISA control binding to BSA; parameters: species or system bovine
T1 construct: purchased Sigma-Aldrich
T1 sequence (P02769 25-607): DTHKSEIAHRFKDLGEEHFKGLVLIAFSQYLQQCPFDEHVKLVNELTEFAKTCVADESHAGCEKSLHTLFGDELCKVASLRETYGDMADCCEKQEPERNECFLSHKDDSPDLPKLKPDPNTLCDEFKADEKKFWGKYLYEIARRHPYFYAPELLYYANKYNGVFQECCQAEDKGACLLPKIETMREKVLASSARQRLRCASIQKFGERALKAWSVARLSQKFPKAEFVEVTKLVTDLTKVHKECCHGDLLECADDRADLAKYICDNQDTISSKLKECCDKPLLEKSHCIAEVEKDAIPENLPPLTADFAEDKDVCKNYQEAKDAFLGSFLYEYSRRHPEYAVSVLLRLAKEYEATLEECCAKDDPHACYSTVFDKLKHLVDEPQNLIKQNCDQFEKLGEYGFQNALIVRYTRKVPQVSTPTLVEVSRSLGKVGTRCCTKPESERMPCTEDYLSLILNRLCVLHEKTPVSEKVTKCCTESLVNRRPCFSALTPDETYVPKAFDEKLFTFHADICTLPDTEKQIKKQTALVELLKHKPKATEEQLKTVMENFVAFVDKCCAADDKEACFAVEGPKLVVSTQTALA
Experimental: as §1

[3] = target: T2, directly coated FAP (FAP) (Homo sapiens, UniProt Q12884); assay: direct ELISA on directly coated FAP; assay type: binding; settings: ELISA, varying antibody concentrations
T2 sequence (Q12884 1-760): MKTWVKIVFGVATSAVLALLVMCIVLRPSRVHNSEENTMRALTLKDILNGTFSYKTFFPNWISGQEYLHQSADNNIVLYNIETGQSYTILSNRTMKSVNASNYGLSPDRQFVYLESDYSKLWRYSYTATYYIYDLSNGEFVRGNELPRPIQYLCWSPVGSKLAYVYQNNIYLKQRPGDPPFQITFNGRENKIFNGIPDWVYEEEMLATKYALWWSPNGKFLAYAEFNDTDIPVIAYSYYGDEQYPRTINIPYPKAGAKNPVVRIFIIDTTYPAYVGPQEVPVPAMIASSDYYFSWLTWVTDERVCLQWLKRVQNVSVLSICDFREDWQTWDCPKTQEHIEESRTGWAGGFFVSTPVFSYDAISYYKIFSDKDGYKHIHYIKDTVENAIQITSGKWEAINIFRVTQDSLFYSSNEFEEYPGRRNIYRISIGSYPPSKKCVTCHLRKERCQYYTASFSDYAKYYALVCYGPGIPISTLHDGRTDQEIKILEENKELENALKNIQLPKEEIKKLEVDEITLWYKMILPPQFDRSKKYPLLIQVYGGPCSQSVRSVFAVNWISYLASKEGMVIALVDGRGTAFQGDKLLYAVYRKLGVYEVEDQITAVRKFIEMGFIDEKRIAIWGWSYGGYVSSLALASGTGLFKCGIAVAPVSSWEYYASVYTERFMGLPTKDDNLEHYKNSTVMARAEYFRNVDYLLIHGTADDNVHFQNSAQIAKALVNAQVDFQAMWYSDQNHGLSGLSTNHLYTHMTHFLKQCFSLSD
Experimental: as §1, §2

[4] = target: T3, recombinant human FAP (sFAP, FAP) versus CD26 and unrelated human antigens (A-N) (Homo sapiens, UniProt Q12884); assay: binding specificity ELISA against FAP versus unrelated human antigens; settings: detection antibody at 20, 4 and 0.8 nM
T3 sequence (Q12884 26-760 limits assumed): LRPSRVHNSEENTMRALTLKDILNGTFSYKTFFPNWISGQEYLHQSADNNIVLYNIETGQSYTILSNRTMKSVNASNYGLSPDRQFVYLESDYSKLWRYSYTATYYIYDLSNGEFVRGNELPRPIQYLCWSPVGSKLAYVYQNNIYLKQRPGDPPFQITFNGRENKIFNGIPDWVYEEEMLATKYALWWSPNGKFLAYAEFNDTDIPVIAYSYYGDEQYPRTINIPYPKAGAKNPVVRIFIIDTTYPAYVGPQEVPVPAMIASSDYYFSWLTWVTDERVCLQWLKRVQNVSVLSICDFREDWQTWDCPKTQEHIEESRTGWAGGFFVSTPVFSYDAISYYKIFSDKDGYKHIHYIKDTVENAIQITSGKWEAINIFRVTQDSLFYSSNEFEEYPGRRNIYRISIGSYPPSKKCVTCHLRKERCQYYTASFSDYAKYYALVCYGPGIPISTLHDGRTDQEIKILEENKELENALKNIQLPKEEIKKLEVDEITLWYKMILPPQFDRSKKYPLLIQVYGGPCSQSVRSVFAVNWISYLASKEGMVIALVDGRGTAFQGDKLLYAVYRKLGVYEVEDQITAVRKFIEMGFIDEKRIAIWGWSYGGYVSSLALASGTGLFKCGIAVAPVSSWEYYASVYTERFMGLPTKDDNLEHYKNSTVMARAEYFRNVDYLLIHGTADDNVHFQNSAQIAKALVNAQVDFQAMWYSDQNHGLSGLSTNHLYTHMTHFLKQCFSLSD
Experimental: A mouse anti-6×-histidine tag antibody (Clonetech) was coated at a concentration of 3 μg/ml in PBS to a 96 well ELISA plate, the plates were then blocked with 5% BSA in PBS, and enzymatically active recombinant human FAP with an N-terminus 6× histidine tag was added to the plates to be captured. The binding efficiency of NI-206.82C2, NI-206.18H2, NI-206.20A8 and NI-206.6D3 (at 20 nM, 4 nM, and 0.8 nM) against sFAP and of NI-206.18H2, NI-206.20A8 and NI-206.6D3 against FAP as well was then tested by 1 hour incubation, followed by washing with PBS and detection with an HRP-labelled goat anti-human antibody (Jackson Immunoresearch) using a colormetric assay. To assess NI-206.82C2, NI-206.18H2, NI-206.20A8 and NI-206.6D3 binding other targets, recombinant human CD26 (only in case of NI-206.82C2) and fourteen other unrelated recombinant human proteins (A-N) were individually added to a 96-well ELISA plate in triplicate, and the binding efficacy of NI-206.82C2 was evaluated. (FIG. 7A to D)

[5] = target: T4, captured FAP (sFAP) (Homo sapiens, UniProt Q12884); assay: capture ELISA, FAP captured via his-tag with coated anti-His antibody; assay type: binding; settings: ELISA, varying antibody concentrations
T4 sequence (Q12884 1-760): T2 sequence (Q12884 1-760)
Experimental: as §1, §2

B1: NI-206.20A8: human-derived recombinant anti-FAP antibody; VH SEQ ID NO: 45, VL SEQ ID NO: 47 (antibody, listed as Homo sapiens, V domains shown)
VH: EVQLVESGGGLVQPGGSLKLSCAGSGLDLSASAVHWVRQASGKGLEWIGRIRSKPNHYATTYLASVRGRFILSRDDSENTAYLQMNSLRTEDTAVYYCRIGILNSDHWGRGTLVTVSS
VL: QSVLTQPPSASGTPGQTVIISCSGSSSNLGRKTLNWYQQLPGAAPKLLIFKNDQRASGVPDRFSASKSGTSASLTISGLQSDDEADYYCGTWDDSLDNWVFGGGTKVTVL
With B1 the “EC50 to the directly coated FAP peptides mixture (cFAP)” value [1] was “did not show any binding”, the “binding to BSA” value [2] was “does not bind” and the “binding to the directly coated FAP” value [3] was “binds less efficiently”. The “colorimetric ELISA signal against FAP versus panel of unrelated human antigens” value [4] was “significantly greater” and the “binding to the captured FAP” value [5] was “binds less efficiently”.

From US20180022822A1, “NOVEL ANTI-FIBROBLAST ACTIVATION PROTEIN (FAP) BINDING AGENTS AND USES THEREOF” (Mabimmune Diagnostics AG, priority 2016, published 2018)
